# Patent US20010010923A1, “MODIFIED CARBOXYPEPTIDASE” (priority 1997, published 2001)
# Where a chain is given by its changes, count along the chain named. In names and notes the source's numbering stands. Entries after “also recorded” stand apart in the source; their conditions may differ. Marks after values point to notes of the source that are not given here.
# B1: T60A: carboxypeptidase Y S1' mutant, substitution T60A (protein, UniProt P00729 112-532, looked up, variant T60A)
# Carboxypeptidase Y: KIKDPKILGIDPNVTQYTGYLDVEDEDKHFFFWTFESRNDPAKDPVILWLNGGPGCSSLAGLFFELGPSSIGPDLKPIGNPYSWNSNATVIFLDQPVNVGFSYSGSSGVSNTVAAGKDVYNFLELFFDQFPEYVNKGQDFHIAGESYAGHYIPVFASEILSHKDRNFNLTSVLIGNGLTDPLTQYNYYEPMACGEGGEPSVLPSEECSAMEDSLERCLGLIESCYDSQSVWSCVPATIYCNNAQLAPYQRTGRNVYDIRKDCEGGNLCYPTLQDIDDYLNQDYVKEAVGAEVDHYESCNFDINRNFLFAGDWMKPYHTAVTDLLNQDLPILVYAGDKDFICNWLGNKAWTDVLPWKYDEEFASQKVRNWTASITDEVAGEVKSYKHFTYLRVFNGGHMVPFDVPENALSMVNEWIHGGFSL
# B2: T60Y: carboxypeptidase Y S1' mutant, substitution T60Y (protein, UniProt P00729 112-532, looked up, variant T60Y)
# Carboxypeptidase Y: B1 Carboxypeptidase Y with A60Y
# B3: T60D + M398L: carboxypeptidase Y double substitution mutant T60D + M398L (protein, UniProt P00729 112-532, looked up, variant T60D M398L)
# Carboxypeptidase Y: B1 Carboxypeptidase Y with A60D, M398L
# B4: M398A: carboxypeptidase Y S1' mutant, substitution M398A (protein, UniProt P00729 112-532, looked up, variant M398A)
# Carboxypeptidase Y: B1 Carboxypeptidase Y with A60T, M398A
# B5: T60D: carboxypeptidase Y S1' mutant, substitution T60D (protein, UniProt P00729 112-532, looked up, variant T60D)
# Carboxypeptidase Y: B1 Carboxypeptidase Y with A60D
# B6: T60A + M398L: carboxypeptidase Y double substitution mutant T60A + M398L (protein, UniProt P00729 112-532, looked up, variant T60A M398L)
# Carboxypeptidase Y: B1 Carboxypeptidase Y with M398L
# B7: T60A + M398Y: carboxypeptidase Y double substitution mutant T60A + M398Y (protein, UniProt P00729 112-532, looked up, variant T60A M398Y)
# Carboxypeptidase Y: B1 Carboxypeptidase Y with M398Y
# B8: T60Y + M398L: carboxypeptidase Y double substitution mutant T60Y + M398L (protein, UniProt P00729 112-532, looked up, variant T60Y M398L)
# Carboxypeptidase Y: B1 Carboxypeptidase Y with A60Y, M398L
# B9: M398G: carboxypeptidase Y S1' mutant, substitution M398G (protein, UniProt P00729 112-532, looked up, variant M398G)
# Carboxypeptidase Y: B1 Carboxypeptidase Y with A60T, M398G
# B10: M398I: carboxypeptidase Y S1' mutant, substitution M398I (protein, UniProt P00729 112-532, looked up, variant M398I)
# Carboxypeptidase Y: B1 Carboxypeptidase Y with A60T, M398I
# B11: M398V: carboxypeptidase Y S1' mutant, substitution M398V (protein, UniProt P00729 112-532, looked up, variant M398V)
# Carboxypeptidase Y: B1 Carboxypeptidase Y with A60T, M398V
# Assay: Transpeptidation of FA-Ala-OBzl with H-Leu-NH2, Table 3
# Format: biochemical
# Details: FA-Ala-OBzl 0.2 mM; H-Leu-NH2; pH 7.5
# Procedure: (§1) Transamidation reactions were carried out generally as described in PCT Application WO 95/20039. In general, the method included dissolving the nucleophile (H-Leu-NH2, unless otherwise indicated) in 50 mM HEPES, 5 mM EDTA and adjusting the pH to 7.5, 5 μl of peptide substrate (8 mM Bz-G-A-R-A-R-A-OH, unless otherwise indicated, in methanol) was added to 190 μl nucleophile solution followed by 5 μl enzyme, resulting in a substrate concentration of 0.2 mM.
# (§2) During the reaction, 20 μl aliquots were removed from the reaction mixture and added to 50 μl 1% trifluoroacetic acid to quench the reaction. The reactant composition was determined by HPLC using a Waters HPLC equipped with a C-18 Waters Novapac 4μ reverse phase column and various gradients of acetonitrile in 0.1% trifluoroacetic acid. The separation was monitored at 254 nm allowing the direct quantification of the products from the integrated peak areas. The composition of the reaction mixture was determined at least twvice during the reaction, the first when 20-50% (preferably 35%) of the substrate had been consumed in the reaction and the second time when 50-90% (preferably 80%) of the peptide substrate had been consumed.
# (§3) The fraction of aminolysis (fa) was expressed as the ratio between the formed aminolysis product and the sum of all products formed. Unconsumed substrate was disregarded in the calculations.
# Site specific mutagenesis was performed as described in Example 1 to produce the specific substitution mutants described below. Transamidation reactions were performed as described for Example 1.
# In table 3, below, KN(app) represents the nucleophile concentration at which fa is half of the maximum value (a measure for the dissociation constant of the nucleophile). famax is the highest possible fa obtained at saturation of the enzyme with the nucleophile.
# KN(app) indicates the concentration at which famax/2 is reached and thus describes the apparent binding constant of the nucleophile. Because the competing hydrolysis reaction is thought to occur while the leaving group remains attached to the to the acyl-enzyme intermediate, a low KN(app) is preferred.
row,Molecule,fa
1,B1,0.92^a
2,B2,0.95^a
3,B3,1.0^a
4,B4,0.93^a
5,B5,0.94^a
6,B6,0.99^a
7,B7,0.97^a
8,B8,1.0^a
9,B9,0.95^a
10,B10,0.94^a
11,B11,0.87^a

# Same assay, conditions: nucleophile H-Leu-NH2 concentration at which fa is half of maximum; FA-Ala-OBzl 0.2 mM; pH 7.5
row,Molecule,KN(app)
1,B3,2.0^b mM
2,B4,0.83^a mM
3,B5,1.5^c mM
4,B6,1.0^b mM
5,B7,9.1^b mM
6,B8,1.7^c mM
7,B9,1.6^a mM
8,B10,0.91^b mM
9,B11,1.43^b mM

# Assay: Transpeptidation of FA-Ala-Xaa-OH with H-Gly-NH2, Table 2
# Format: biochemical
# Details: FA-Ala-Ala-OH 0.2 mM; 1.9 M H-Gly-NH2; pH 7.5; room temperature
# Procedure: as §1, §2, §3
# Site specific mutagenesis was performed as described for Example 1 to produce the S1 mutants used below.
# Transamidation reactions were performed as described for Example 1.
row,Molecule,"Fraction of aminolysis (fa), P1' Ala"
1,B1,0.91
2,B2,0.90
3,B3,0.89
4,B4,0.93
5,B5,0.87
6,B6,0.92
7,B7,0.80
8,B8,0.92
9,B9,0.93
10,B10,0.93
11,B11,0.93

# Same assay, conditions: FA-Ala-Leu-OH 0.2 mM; 1.9 M H-Gly-NH2; pH 7.5; room temperature
row,Molecule,"Fraction of aminolysis (fa), P1' Leu"
1,B1,0.32
2,B2,0.66
3,B3,0.89
4,B4,0.84
5,B5,0.25
6,B6,0.94
7,B7,0.83
8,B8,0.95
9,B9,0.59
10,B10,0.91
11,B11,0.91

# Same assay, conditions: FA-Ala-Met-OH 0.2 mM; 1.9 M H-Gly-NH2; pH 7.5; room temperature
row,Molecule,"Fraction of aminolysis (fa), P1' Met"
1,B1,0.16
2,B2,0.58
3,B3,0.66
4,B4,0.89
5,B5,0.15
6,B6,0.72
7,B7,0.83
8,B8,0.93
9,B9,0.83
10,B10,0.83
11,B11,0.83

# Same assay, conditions: FA-Ala-Phe-OH 0.2 mM; 1.9 M H-Gly-NH2; pH 7.5; room temperature
row,Molecule,"Fraction of aminolysis (fa), P1' Phe"
1,B1,0.12
2,B2,0.51
3,B3,0.62
4,B4,0.84
5,B5,0.15
6,B6,0.52
7,B7,0.81
8,B8,0.87
9,B9,0.66
10,B10,0.75
11,B11,0.86

# Same assay, conditions: FA-Ala-Val-OH 0.2 mM; 1.9 M H-Gly-NH2; pH 7.5; room temperature
row,Molecule,"Fraction of aminolysis (fa), P1' Val"
1,B1,0.44
2,B2,0.43
3,B3,0.90
4,B4,0.65
5,B5,0.53
6,B6,0.91
7,B7,0.81
8,B8,0.89
9,B9,0.42
10,B10,0.87
11,B11,0.81

# Same assay, conditions: larger, hydrophobic leaving group such as leucine
row,Molecule,"fraction of aminolysis compared to wild type, in words"
1,B1,improvement in fraction of aminolysis obtained; also recorded: most effective at increasing the fraction of aminolysis
2,B2,improvement in fraction of aminolysis obtained; also recorded: most dramatic improvement; also recorded: most effective at increasing the fraction of aminolysis
3,B3,further improved the fraction of aminolysis
4,B4,improvement in fraction of aminolysis obtained; also recorded: enhanced transpeptidation
5,B5,improvement in fraction of aminolysis obtained
6,B6,further improved the fraction of aminolysis
7,B7,further improved the fraction of aminolysis
8,B8,further improved the fraction of aminolysis
9,B9,improvement in fraction of aminolysis obtained
10,B10,improvement in fraction of aminolysis obtained; also recorded: most dramatic improvement
11,B11,improvement in fraction of aminolysis obtained; also recorded: most dramatic improvement; also recorded: enhanced transpeptidation

# Same assay, conditions: larger, hydrophobic leaving group such as leucine; listed as M3981
row,Molecule,"fraction of aminolysis compared to wild type, in words"
1,B10,enhanced transpeptidation
